The values that follow are results of earlier work, collected in publication PMC8266389.

For orientation: Kd means the constant that tells how readily two partners part at equilibrium.

Some targets named below: Cripto-1 (Homo sapiens) (UniProt P13385); Cryptic (Homo sapiens) (UniProt P0CG37); ACTRIIB (Homo sapiens) (UniProt Q13705); BMPRII (Homo sapiens) (UniProt Q13873); ALK4 (Homo sapiens) (UniProt P36896); ACTRIIA (Homo sapiens) (UniProt P27037).
Chain of UniProt P36896 (P36896 24-126): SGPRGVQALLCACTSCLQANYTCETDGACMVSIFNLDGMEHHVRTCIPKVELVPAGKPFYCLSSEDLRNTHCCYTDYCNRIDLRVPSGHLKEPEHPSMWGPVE
Chain of UniProt Q13705 (Q13705 19-137): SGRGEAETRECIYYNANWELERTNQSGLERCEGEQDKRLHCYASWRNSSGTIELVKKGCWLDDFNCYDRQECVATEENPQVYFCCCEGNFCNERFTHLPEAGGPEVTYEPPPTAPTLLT
Chain of UniProt P27037 (P27037 20-135): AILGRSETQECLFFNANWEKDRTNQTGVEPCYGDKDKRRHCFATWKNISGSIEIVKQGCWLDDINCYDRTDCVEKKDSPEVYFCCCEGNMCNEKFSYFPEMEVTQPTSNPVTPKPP
Chain of UniProt P13385 (P13385 31-150): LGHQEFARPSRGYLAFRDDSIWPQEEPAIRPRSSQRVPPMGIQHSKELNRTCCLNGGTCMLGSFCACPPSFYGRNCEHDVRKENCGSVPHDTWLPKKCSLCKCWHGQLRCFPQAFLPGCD
Chain of UniProt Q13873 (Q13873 27-150): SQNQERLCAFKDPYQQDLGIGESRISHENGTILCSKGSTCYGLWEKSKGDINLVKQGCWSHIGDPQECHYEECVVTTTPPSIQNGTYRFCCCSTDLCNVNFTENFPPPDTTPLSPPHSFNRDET
Chain of UniProt P0CG37 (P0CG37 26-158): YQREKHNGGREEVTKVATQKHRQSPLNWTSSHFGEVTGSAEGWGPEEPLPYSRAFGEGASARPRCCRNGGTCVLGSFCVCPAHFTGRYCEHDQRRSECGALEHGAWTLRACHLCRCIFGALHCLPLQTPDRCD

With Nodal (from UniProt Q96S42), the dissociation constant (Kd) with Cripto-1 (Homo sapiens) is 16 nM; with Cryptic (Homo sapiens) it was 2000 nM; with ACTRIIB (Homo sapiens), 10 nM; with BMPRII (Homo sapiens) it was 0.149 nM; in the series with ALK4 (Homo sapiens), 15 nM; in the series with ACTRIIA (Homo sapiens) it was 100 nM.
